Numbering of substitutions follows the chain as printed. Names may count otherwise.
Tests used:
RTCB–PYROXD1 complex = target: T1, RTCB–PYROXD1 complex (Homo sapiens, UniProt Q8WU10); assay: cryo-EM structure, […] Å; assay type: binding; conditions: prepared with 0.5 mM NADH, 5 mM MgCl2, pH 8.0, redox state NAD+ inferred (charge-transfer complex), PYROXD1 active site
T1 construct: PYROXD1 (GST cut, E. coli) with RTCB (N-terminal tag cut by TEV, Sf9); 1:1 complex with Mg2+ in RTCB; with RNA-splicing ligase RtcB homolog
T1 sequence (Q8WU10 1-500): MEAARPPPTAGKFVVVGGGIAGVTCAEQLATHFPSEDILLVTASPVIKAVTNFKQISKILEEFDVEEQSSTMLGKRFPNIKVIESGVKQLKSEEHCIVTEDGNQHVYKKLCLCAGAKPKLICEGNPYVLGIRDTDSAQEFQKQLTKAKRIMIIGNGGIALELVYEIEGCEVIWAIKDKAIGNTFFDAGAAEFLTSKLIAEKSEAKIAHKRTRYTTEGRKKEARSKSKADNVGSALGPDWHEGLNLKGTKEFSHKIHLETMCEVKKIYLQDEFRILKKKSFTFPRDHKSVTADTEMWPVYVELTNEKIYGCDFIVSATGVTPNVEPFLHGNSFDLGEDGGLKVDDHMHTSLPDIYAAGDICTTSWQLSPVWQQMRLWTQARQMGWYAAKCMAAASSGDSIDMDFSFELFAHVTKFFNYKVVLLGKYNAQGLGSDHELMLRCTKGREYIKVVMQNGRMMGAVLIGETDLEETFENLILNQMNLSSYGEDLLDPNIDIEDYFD
T1 sequence (Q9Y3I0 1-505 partner): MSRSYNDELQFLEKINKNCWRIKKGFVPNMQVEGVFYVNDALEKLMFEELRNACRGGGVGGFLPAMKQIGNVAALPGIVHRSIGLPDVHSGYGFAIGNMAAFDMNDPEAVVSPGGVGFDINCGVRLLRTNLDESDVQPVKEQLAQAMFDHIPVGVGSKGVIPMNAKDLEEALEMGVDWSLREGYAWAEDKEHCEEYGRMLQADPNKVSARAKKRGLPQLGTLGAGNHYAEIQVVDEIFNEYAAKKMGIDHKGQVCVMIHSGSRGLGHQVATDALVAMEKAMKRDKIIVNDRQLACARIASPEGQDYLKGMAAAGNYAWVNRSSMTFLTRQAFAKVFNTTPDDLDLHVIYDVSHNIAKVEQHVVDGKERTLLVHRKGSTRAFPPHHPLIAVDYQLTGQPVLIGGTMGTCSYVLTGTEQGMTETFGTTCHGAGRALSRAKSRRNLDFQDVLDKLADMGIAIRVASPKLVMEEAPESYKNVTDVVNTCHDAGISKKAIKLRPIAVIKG

RTCB (with Archease) = target: T2, RTCB (with Archease) (Homo sapiens, UniProt Q9Y3I0); assay: guanylylation of RTCB, intact-protein LC-MS; assay type: biochemical; conditions: covalent GMP adduct on RTCB His428, 2.5 mM MnCl2, 0.5 mM GTP, 20 mM HEPES pH 8.0, 25 °C
T2 construct: RTCB, N-terminal tag cut by TEV, Sf9; Archease residues 27-168, His6-MBP cut, E. coli; with Protein archease
T2 sequence (Q9Y3I0 1-505): T1 sequence (Q9Y3I0 1-505 partner)
T2 sequence (Q8IWT0 27-167 partner): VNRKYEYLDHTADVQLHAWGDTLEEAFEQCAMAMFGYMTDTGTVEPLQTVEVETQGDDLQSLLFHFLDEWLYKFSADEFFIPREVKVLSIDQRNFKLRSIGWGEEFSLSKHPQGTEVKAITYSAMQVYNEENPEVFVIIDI

RTCB = target: T3, RTCB (human, UniProt Q9Y3I0 1-505); assay: cryo-EM structure; 100 µM RTCB mixed 1:1 with 100 µM PYROXD1 in 20 mM HEPES pH 8.0, 150 mM NaCl, 0.5 mM TCEP, 5 mM MgCl2, 0.5 mM NADH; SEC; single-particle cryo-EM; conditions: both partners purified
T3 construct: human RTCB (UniProt Q9Y3I0); inserted into the 438B plasmid (N-terminal hexahistidine tag, TEV site); the tag is removed by TEV in either case; also called apo-RTCB; un-guanylylated RTCB; source: Sf9 insect cells (baculovirus), purified (Ni-NTA, TEV cleavage, SEC); not shown: His6, N-terminal, cleaved
T3 sequence: T1 sequence (Q9Y3I0 1-505 partner)

StrepII–GFP–RTCB [1] = target: T4, StrepII–GFP–RTCB (human, UniProt Q9Y3I0 1-505); assay: pull-down; dissociation kinetics: complex formed with 0.5 mM NADH and 5 mM MgCl2, held on Strep-Tactin beads via StrepII–GFP–RTCB, NADH and unbound PYROXD1 washed out, bound PYROXD1 followed over time under aerobic conditions; Coomassie Blue; conditions: both partners purified
T4 construct: human RTCB (UniProt Q9Y3I0), catalytic subunit of the tRNA ligase complex; inserted into the 438-Rgfp plasmid; a TEV site lies between GFP and RTCB; In the dissociation assay it is called 2× StrepII–GFP–RTCB; also called immobilized RTCB; 2× StrepII–GFP–RTCB; source: Sf9 insect cells (baculovirus), purified (Strep-Tactin, SEC); not shown: StrepII, N-terminal, kept; super folder green fluorescent …
T4 sequence: T1 sequence (Q9Y3I0 1-505 partner)

purified protein = substrate: NC(=O)C1=CN([C@@H]2O[C@H](COP(=O)(O)OP(=O)(O)OC[C@H]3O[C@@H](n4cnc5c(N)ncnc54)[C@H](O)[C@@H]3O)[C@@H](O)[C@H]2O)C=CC1; assay: purified protein; assay type: biochemical, Homo sapiens; conditions: aerobic (O2 as acceptor), 20 mM Tris-HCl pH 8.0, 150 mM KCl, 0.05% Tween-20, 22 °C
StrepII–GFP–RTCB [2] = target: T4, StrepII–GFP–RTCB; assay: pull-down; StrepII–GFP–RTCB (0.2 nmol) immobilised on MagStrep type 3 XT beads, 0.4 nmol PYROXD1; HEPES pH 8.0, 150 mM KCl, 0.1% Tween-20, 1 mM TCEP, 0.5 mM NADH, 2.5 mM MgCl2, 2.5 mM MnCl2; 30 min at 4 °C; SDS–PAGE, Coomassie Blue; conditions: both partners purified

In the case of `Cc1cc2c(cc1C)N(C[C@H](O)[C@H](O)[C@H](O)COP(=O)(O)OP(=O)(O)OC[C@H]1O[C@@H](n3cnc4c(N)ncnc43)[C@H](O)[C@@H]1O)c1[nH]c(=O)[nH]c(=O)c1N2` [FADH^−], the “cryo-EM structure, 3.3 Å” value (RTCB–PYROXD1 complex; redox state FADH- inferred) is reported as “PYROXD1 coordinates FADH^− with residues including Gly18, Ala21, Thr42, Ala43”.

In the case of `NC(=O)c1ccc[n+]([C@@H]2O[C@H](COP(=O)(O)OP(=O)(O)OC[C@H]3O[C@@H](n4cnc5c(N)ncnc54)[C@H](O)[C@@H]3O)[C@@H](O)[C@H]2O)c1` [NAD^+], the “cryo-EM structure, 3.3 Å” value (RTCB–PYROXD1 complex) is reported as “NAD^+ interacts with residues Gly157, Ile158, Arg374, His410 and Thr412”.

`Nc1nc2c(ncn2[C@@H]2O[C@H](COP(=O)(O)OP(=O)(O)OP(=O)(O)O)[C@@H](O)[C@H]2O)c(=O)[nH]1` [GTP] was tested, and the “guanylylation of RTCB, intact-protein LC-MS” value (RTCB (with Archease)) was “generating a mixture of guanylylated and un-guanylylated RTCB”.

B1: PYROXD1 (enzyme, human)
chain: T1 sequence (Q8WU10 1-500)
notes: human PYROXD1 (UniProt Q8WU10), amplified from HeLa cDNA, in pGEX-6P-1; FAD-containing flavoprotein; also called wild-type PYROXD1; WT; source: E. coli BL21(DE3), purified (Glutathione Sepharose, 3C cleavage, SEC); not shown: GST, N-terminal, cleaved
For B1, the “stoichiometry N” value (RTCB) was 1, the “half-life of the complex upon NADH removal” value (StrepII–GFP–RTCB [1]) was roughly 2 min and the Km (purified protein) was 611.0 ± 98.3 µM.

B2: PYROXD1 (Homo sapiens; W239A) (protein)
chain: T1 sequence (Q8WU10 1-500) with W239A
notes: full-length from HeLa cDNA, N-terminal GST cut off with 3C protease; E. coli BL21(DE3); FAD-containing
B2 gave a Km (purified protein; text prints W293A, figure legend W239A) of 1472.1 ± 105.0 µM.

B3: PYROXD1 D497A (enzyme, human)
chain: T1 sequence (Q8WU10 1-500) with D497A
notes: human PYROXD1 (UniProt Q8WU10) with D497A; source: E. coli BL21(DE3), purified (Glutathione Sepharose, 3C cleavage, SEC); not shown: GST, N-terminal, cleaved
B3: binds (StrepII–GFP–RTCB [2]).

B4: PYROXD1 Y498A (enzyme, human)
chain: T1 sequence (Q8WU10 1-500) with Y498A
notes: human PYROXD1 (UniProt Q8WU10) with Y498A; source: E. coli BL21(DE3), purified (Glutathione Sepharose, 3C cleavage, SEC); not shown: GST, N-terminal, cleaved
B4: binds (StrepII–GFP–RTCB [2]).

B5: PYROXD1 F499A (enzyme, human)
chain: T1 sequence (Q8WU10 1-500) with F499A
notes: human PYROXD1 (UniProt Q8WU10) with F499A; source: E. coli BL21(DE3), purified (Glutathione Sepharose, 3C cleavage, SEC); not shown: GST, N-terminal, cleaved
B5: binds (StrepII–GFP–RTCB [2]).

B6: PYROXD1 D500A (enzyme, human)
chain: T1 sequence (Q8WU10 1-500) with D500A
notes: human PYROXD1 (UniProt Q8WU10) with D500A; source: E. coli BL21(DE3), purified (Glutathione Sepharose, 3C cleavage, SEC); not shown: GST, N-terminal, cleaved
B6: binds (StrepII–GFP–RTCB [2]).

B7: PYROXD1 ∆500 (domain or fragment, human, UniProt Q8WU10 1-499, looked up)
chain: MEAARPPPTAGKFVVVGGGIAGVTCAEQLATHFPSEDILLVTASPVIKAVTNFKQISKILEEFDVEEQSSTMLGKRFPNIKVIESGVKQLKSEEHCIVTEDGNQHVYKKLCLCAGAKPKLICEGNPYVLGIRDTDSAQEFQKQLTKAKRIMIIGNGGIALELVYEIEGCEVIWAIKDKAIGNTFFDAGAAEFLTSKLIAEKSEAKIAHKRTRYTTEGRKKEARSKSKADNVGSALGPDWHEGLNLKGTKEFSHKIHLETMCEVKKIYLQDEFRILKKKSFTFPRDHKSVTADTEMWPVYVELTNEKIYGCDFIVSATGVTPNVEPFLHGNSFDLGEDGGLKVDDHMHTSLPDIYAAGDICTTSWQLSPVWQQMRLWTQARQMGWYAAKCMAAASSGDSIDMDFSFELFAHVTKFFNYKVVLLGKYNAQGLGSDHELMLRCTKGREYIKVVMQNGRMMGAVLIGETDLEETFENLILNQMNLSSYGEDLLDPNIDIEDYF
notes: human PYROXD1 (UniProt Q8WU10), C-terminal truncation ∆500 (lacks the C-terminal residue Asp500); source: E. coli BL21(DE3), purified (Glutathione Sepharose, 3C cleavage, SEC); not shown: GST, N-terminal, cleaved
B7: binds (StrepII–GFP–RTCB [2]).

B8: PYROXD1 ∆E496 (enzyme, human)
chain: B7 chain with E496D, D497Y, Y498F, F499D
notes: source: E. coli BL21(DE3), purified (Glutathione Sepharose, 3C cleavage, SEC); not shown: GST, N-terminal, cleaved
B8: binds (StrepII–GFP–RTCB [2]).
